Test results as given in the DeepSol protein solubility set.

Assay: soluble on expression in E. coli; label from the status in PepcDB or PDB records

Sequence	soluble on expression in E. coli
MAHHHHHHMGSTGRKAVDEINHWIAYIDCALSHPHPLPKGKHVFRSDLSTVPEVRDIYDCLYKLYAEESASASFREPVNALELGVFNYYEVVTEPMSLRTVLDRIAEGGHYSQASQVLADVEKIWSNCEKYNGADSALVKEAKKCQGILTRLRERLAEEQPAPNAELDKIISAFESADESVLGELEAYFRREDPSLIISNGDVDLTALRVKHLKAMKAILERAMNGGGGRG	not soluble
MKILPLALFIIPFLAGCGANNTPPQTPIPGEKTSAKLRTLETGAAAIQSRPPVDAISTYLDGFHFYSGDKNGQMEAHHYVTVLNEDVMQAVIYDGNTKNARLMGVEYIISERLFKTLPPEEKKLWHSHQYEVKSGSLVAPGLPQVADKALMSKIVNTYGKTWHTWHTDRDKTLPMGIPALMMGFTGDGQLDPALLADRDRRLGIDTQAIKRERQDLPEHPVVKGANAWEQGEVIQLQRVQGSGEHGRGDTAHFGTSEQSRQLEHHHHHH	soluble
MAEERHHTEHIPQWKKDEIENIKELIQSHKVFGMVRIEGILATKIQKIRRDLKDVAVLKVSRNTLTERALNQLGESIPEMTRYLDNQTALIFTNESPFKLYKLLEQTKTPSPIKAGAIAPEDIIVQKGPTSFPPGPILGELQSAGIPASIDAGKVAVKETKVVCKAGEAVPQKLATMLSKLEIYPLIVGLDLRAAYDDGTIYEPELLAVDESKYFSDIIRAAQNAFNLSVNTAYPTGATIGTLLAKAYAESKSLGVNAVILEPGVMDSLLAKAHVQMTSVASEAAEKDANAVDDDLREVLGAAASAAAAATVAAPAAEEEKKEEEPEEEEEDHAEEDGMAGLGALFGLEHHHHHH	soluble
TQLQLKDSMEKFGALYHSSSLGMLIVIEREIVDANHRALELLSYKKSDLLEQSLDTLCPTTADECRVDAMYRELQHGRNQFEAQMLDSHGETIDCLIEATLIQHNGHTALMLLLQDLS	not soluble
MSAEQDKEPIALKRVRGGDSGLDGLGGPNIQLGSPDKKKRKANTQGSSFPPLSEYAPPPNPNSDHLVAANPFDDSYNTISYKPLPSSNPYLGPGYPGFGGYSTFRMPPHVPPRMSSPYCGPYSLRNQPHPFPQNPLGMGFNRPHAFNFGPHDNSNFGNPPYNNVLTQDINMPGQHFRQGSAENFSQIPPQNVGQVSNPDLASNFAPGNNSNFTSPLETNHSFIPPPNAFGQAKAPLPKQDFTQGATKTPNQNSSTHPPHLNMEDPVNQSNVELKNVNRNNVVQENSRSGSAEATNNHANGTQNKPRQPRGAADLCTPDKSRKFSLLPSRHGHSSSDPVYPCGICTNEVNDDQDAILCEASCQKWFHRICTGMTETAYGLLTAEASAVWGCDTCMADKDVQLMRTREAFGPPAVGGDA	soluble
ERLFQVFISLGVGKSAIRQHLASLDPTNSRDIEALADELSGKRPLLYRGVAMLLAHHSFAKSLREDAAGMWLQEKRHQLHSGLR	not soluble
MSLKNDVSPLEIKVIDENSEQYGISKETLMENAGRAVYEEIVNLNVDFSKTYLFCGTGNNGGDGFVIARHLANNFATFVVLIGNERKIKTSETQRNFNTVKNMEFFGNLDYANILDDERAVELLKTIEKELENKQNDHILIIDAMLGTGITGILKNPYSTIVDYLNVLKSKYSKKLKMVSVDIQTGNLNADLEVILHKRKFENKNKNFVVKDIGIPKYIENMVGKGDFYLLNERKQNSHKGQNGNVLVIGGSKEYHGAPVFSALAASKFADIVTVASVSNVMNTVSNYPELMPYELTGDYIVQNHVDELLELSKNYDCVVLGSGISVNSDTKEFVNSYLNETNGKVVIDADAIKLIDYSNFKFKNNFIFTPHKKEFEYIENYIESSGFKSTVVLKGSLDIIFNSNNIKMNITGNQGMTVGGTGDILCGIIGAIYACNDAFPSACCGTYINGYCGDLLEKEYGYYYNSTDIIKILPKALKELLYEGHHHHHH	soluble
MSLKEEEIQNDFMFEEYHKGDKIVLNSVNGGSKTLIRTDKGFVVEGEEGKVLMFDFFGTFCTPCKEEALDLSKLWKNNSSKFIIIGLTHFEDVSDETVKKFAGDYGAYYFLSNGSSNDRIIAQILKDIDYQNMEQLPFKVVLKNGIYQKISDYWNNNTPTNFYLGKIPTELMQEDLNKIYKGKEGHHHHHH	soluble
MLIKVKTLTGKEIEIDIEPTDTIDRIKERVEEKEGIPPVQQRLIYAGKQLADDKTAKDYNIEGGSVLHLVLALRGG	soluble
MGSDKIHHHHHHMTTHTKPGLRPANPNFSSGPCAKRPGWSVEALKNAALGRSHRAKIGKTKLEQAIELTREILQVPADHRIGIVPASDTGAVEMALWSLLGERGVDMVAWESFGSGWVTDVVKQLKLPDVRKLEAGYGELPDLAKIDFDRDVVFTWNGTTSGVRVPNGDFIPADRKGLTICDATSAAFAQRLDFEKLDVVTFSWQKVLGGEGAHGMLILSPRAVARLESYKPAWPLPKIFRLTSGGKLIEGIFKGETINTPSMLCVEDYLDALHWAKSIGGLDVLVARADANAAVLDGFVDKSSWLGHLAVQPATRSNTSVCLSFTDPDVAALDADGQATFAKGLVSALDKEGVAYDIGSYRDAPPGLRIWCGATVETSDLETLLPWLDWAFAAQKASLKAAA	not soluble
MGSDKIHHHHHHMKGLDYCRQKAEESRSSFLSGFRFLTQEKQDAVTVLYAFCRELDDVVDECSNPDVAQATLNWWRGDLDNAFGGAMPEHPVNQALRQVKETFKLPKYELEALIDGMQMDLVQARYGSFEELKLYCRRVAGVVGCLIARILGFSDGKTLEYADKMGLALQLTNIIRDVGEDARRGRIYLPMEEMQRFDVPASVILQCSPTGNFAELMAFQIKRARETYREAVSLLPDADKKAQKVGLVMAAVYYALLNEIDRDGAQNVLKYKIALPSPRKKRIALKTWLFGFKPRPGTPERA	not soluble
MGHHHHHHSHMRFFHWFSKWRKLHRDQEYEVTWYISWSPCTKCTRDMATFLAEDPKVTLTIFVARLYYFWDPDYQEALRSLCQKRDGPRATMKIMNYDEFQHCWSKFVYSQRELFEPWNNLPKYYILLHIMLGEILR	not soluble
MSLRIKDIARLANVSVGTVDRVLHGRSGVSEASRKRVEEILKQLDYQPNMYASALASNKKYTFACLLPKHLEGEYWTDVQKGIREAVTTYSDFNISANITHYDPYDYNSFVATSQAVIEEQPDGVMFAPTVPQYTKGFTDALNELGIPYIYIDSQIKDAPPLAFFGQNSHQSGYFAARMLMLLAVNDREIVIFRKIHEGVIGSNQQESREIGFRQYMQEHHPACNILELNLHADLNIEDSRMLDDFFREHPDVKHGITFNSKVYIIGEYLQQRRKSDFSLIGYDLLERNVTCLKEGTVSFLIAQQPELQGFNSIKTLCDHLIFRKEVACTNYMPIDLLTKENIDYYHSEGHHHHHH	soluble
MKPRPQSDAVDNEGPTPLSKGRRHLAMRLDDAWLGFQTRLAIRRGRVETVIPYTGYGSTSWVRVLARIVRSDPRDAAGHTNPLQESMRGWRNFTSAPVAHASVQVTIDGTVHDVVADRGGVVDARIPVALDAGWHTITLRSGESETVEAPVEIVADDAVFGVVSDIDDTVMVTALPRPFLAAWNTFVLNEHARTPTPGMAVLYERIARTAPSAPVLYLSTGAWNVAPTLSRFLSRNLYPAGPKLLTDWGPTPDRWFRSGQEHKRTSLERLAEEFPNIKWLLVGDDGQHDEAIYSEFAQRHPASVRAIAIRQLSAGEAVLAGGRSKSGGQPTPGVPWIYAPDGAGMSAQLEELGIIRLEHHHHHH	not soluble
DMSKVNLEVIKPWITKRVTEILGFEDDVVIEFIFNQLEVKNPDSKMMQINLTGFLNGKNAREFMGELWPLLLSAQENIAGIPSAFLELKK	not soluble
MGSDKIHHHHHHMTENKPSEQTNELKDLVVEKEFNQTLDDLLANPFGSDGESAASIVNNETDAAPRLVDMLTETNKKQALELSKQIEPGNQAAILGYGAPAQAKLHDFSHSMLAHVQKQDVGPIGDIISDLMYRLQEADPDELAARNKNVFTKMFHRVKQSINEITSKYQKIGTQIDRIALKLEHSKKRLMEDNSFLEQLYDKNKDYFQALNIYIAAGELKLEEINTKMLPELRKKAEQTGDQMDYQEVNDLTQFADRLDKRVYDLRLSRQITIQQAPQIRLIQNTNQALAEKIQSSIMTAIPLWKNQVAIALTLLRQQQAVAAQRQVSETTNELLKRNADMLKTNAIETARENERGIVDIETLKETQSSLIETLQETLKIQQEGRAKRAVAEKELVTMEQELKERLLEMK	not soluble
